# Data from PMC12087662.
# Molecular target: ATP6V1D (UniProt Q9Y5K8)
# Assay: in vitro binding, anti-Flag pull-down
# Conditions: reference: wild-type ATP6V1B2-Flag; sites Y68
substance,measurement,value
ATP6V1B2 (from UniProt P21281) ATP6V1B2(Y68F)-Flag,binding against the reference,weaker
